Target: T1, integrin α11 (ITGA11) (human, UniProt Q9UKX5 23-1188)
T1 sequence (looked up): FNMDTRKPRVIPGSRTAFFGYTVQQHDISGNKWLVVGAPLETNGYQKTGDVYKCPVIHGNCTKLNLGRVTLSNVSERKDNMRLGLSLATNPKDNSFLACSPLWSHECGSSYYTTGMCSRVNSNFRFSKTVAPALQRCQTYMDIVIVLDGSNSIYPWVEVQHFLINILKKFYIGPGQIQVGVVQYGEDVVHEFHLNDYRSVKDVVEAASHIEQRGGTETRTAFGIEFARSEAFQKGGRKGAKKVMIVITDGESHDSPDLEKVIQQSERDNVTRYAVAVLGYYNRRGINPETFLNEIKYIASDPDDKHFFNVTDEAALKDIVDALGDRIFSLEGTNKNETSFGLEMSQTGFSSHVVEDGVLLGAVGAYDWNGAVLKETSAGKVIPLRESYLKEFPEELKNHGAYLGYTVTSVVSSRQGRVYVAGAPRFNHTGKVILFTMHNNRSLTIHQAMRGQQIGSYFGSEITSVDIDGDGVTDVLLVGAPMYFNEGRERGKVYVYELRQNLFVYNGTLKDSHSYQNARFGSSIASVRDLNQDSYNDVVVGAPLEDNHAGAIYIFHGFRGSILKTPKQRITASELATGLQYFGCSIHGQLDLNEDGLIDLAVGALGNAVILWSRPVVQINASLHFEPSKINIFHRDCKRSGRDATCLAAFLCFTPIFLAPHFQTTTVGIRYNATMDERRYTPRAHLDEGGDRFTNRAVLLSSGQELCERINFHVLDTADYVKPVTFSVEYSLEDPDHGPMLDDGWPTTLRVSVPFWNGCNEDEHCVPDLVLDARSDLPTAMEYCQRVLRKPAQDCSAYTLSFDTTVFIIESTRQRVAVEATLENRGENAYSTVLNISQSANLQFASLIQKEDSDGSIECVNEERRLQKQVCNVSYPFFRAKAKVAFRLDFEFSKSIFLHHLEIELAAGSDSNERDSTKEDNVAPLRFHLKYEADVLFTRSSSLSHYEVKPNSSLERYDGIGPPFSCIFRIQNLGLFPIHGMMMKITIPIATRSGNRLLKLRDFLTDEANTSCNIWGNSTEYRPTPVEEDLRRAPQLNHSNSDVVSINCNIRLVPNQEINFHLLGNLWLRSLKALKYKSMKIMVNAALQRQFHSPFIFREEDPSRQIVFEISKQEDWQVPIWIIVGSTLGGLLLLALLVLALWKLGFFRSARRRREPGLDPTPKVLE
Experiment: cell-based or functional assay

B1: anti-ITGA11 antibody #014 (antibody, mouse IgG2a, kappa, V domains shown)
VH: EVQLVESGGGLVQPGGSLRLSCAASGFNLTSSYIHWVRQAPGKGLEWVASISSHSSYTYYADSVKGRFTISADTSKNTAYLQMNSLRAEDTAVYYCARYWYYSAWALDYWGQGTLVTVSS
VL: DIQMTQSPSSLSASVGDRVTITCRASQSVSSAVAWYQQKPGKAPKLLIYSASSLYSGVPSRFSGSRSGTDFTLTISSLQPEDFATYYCQQSAPYSSLITFGQGTKVEIKR
luminescence intensity ratio, ADCC Reporter Bioassay kit, non-senescent IMR-90 cell, relative to the cell without antibody regarded as 1: 1.4 ratio
luminescence intensity ratio, ADCC Reporter Bioassay kit, senescent IMR-90 cell, relative to the cell without antibody regarded as 1: 4.7 ratio
